US20030045470A1

Molecular target: Gal4 DBD-COUP-TF fusion protein (yeast) (UniProt P04386)
Experiment: cell-based or functional assay

Q: With “PGC-1 (expressed from pCMV-PGC-1 in transfected cells) (from UniProt O70343 1-797)” as the substance, how does the PGC-1 mediated activation of mutant PEPCK promoter-luciferase constructs (% of that achieved by HNF-4α) read?
A: The PGC-1 mediated activation of mutant PEPCK promoter-luciferase constructs (% of that achieved by HNF-4α) was 20 to 30.
